Key:
[1] = molecular target: factor X, P00742
[2] = molecular target: T1, factor VIIIa, P00451
T1 chain: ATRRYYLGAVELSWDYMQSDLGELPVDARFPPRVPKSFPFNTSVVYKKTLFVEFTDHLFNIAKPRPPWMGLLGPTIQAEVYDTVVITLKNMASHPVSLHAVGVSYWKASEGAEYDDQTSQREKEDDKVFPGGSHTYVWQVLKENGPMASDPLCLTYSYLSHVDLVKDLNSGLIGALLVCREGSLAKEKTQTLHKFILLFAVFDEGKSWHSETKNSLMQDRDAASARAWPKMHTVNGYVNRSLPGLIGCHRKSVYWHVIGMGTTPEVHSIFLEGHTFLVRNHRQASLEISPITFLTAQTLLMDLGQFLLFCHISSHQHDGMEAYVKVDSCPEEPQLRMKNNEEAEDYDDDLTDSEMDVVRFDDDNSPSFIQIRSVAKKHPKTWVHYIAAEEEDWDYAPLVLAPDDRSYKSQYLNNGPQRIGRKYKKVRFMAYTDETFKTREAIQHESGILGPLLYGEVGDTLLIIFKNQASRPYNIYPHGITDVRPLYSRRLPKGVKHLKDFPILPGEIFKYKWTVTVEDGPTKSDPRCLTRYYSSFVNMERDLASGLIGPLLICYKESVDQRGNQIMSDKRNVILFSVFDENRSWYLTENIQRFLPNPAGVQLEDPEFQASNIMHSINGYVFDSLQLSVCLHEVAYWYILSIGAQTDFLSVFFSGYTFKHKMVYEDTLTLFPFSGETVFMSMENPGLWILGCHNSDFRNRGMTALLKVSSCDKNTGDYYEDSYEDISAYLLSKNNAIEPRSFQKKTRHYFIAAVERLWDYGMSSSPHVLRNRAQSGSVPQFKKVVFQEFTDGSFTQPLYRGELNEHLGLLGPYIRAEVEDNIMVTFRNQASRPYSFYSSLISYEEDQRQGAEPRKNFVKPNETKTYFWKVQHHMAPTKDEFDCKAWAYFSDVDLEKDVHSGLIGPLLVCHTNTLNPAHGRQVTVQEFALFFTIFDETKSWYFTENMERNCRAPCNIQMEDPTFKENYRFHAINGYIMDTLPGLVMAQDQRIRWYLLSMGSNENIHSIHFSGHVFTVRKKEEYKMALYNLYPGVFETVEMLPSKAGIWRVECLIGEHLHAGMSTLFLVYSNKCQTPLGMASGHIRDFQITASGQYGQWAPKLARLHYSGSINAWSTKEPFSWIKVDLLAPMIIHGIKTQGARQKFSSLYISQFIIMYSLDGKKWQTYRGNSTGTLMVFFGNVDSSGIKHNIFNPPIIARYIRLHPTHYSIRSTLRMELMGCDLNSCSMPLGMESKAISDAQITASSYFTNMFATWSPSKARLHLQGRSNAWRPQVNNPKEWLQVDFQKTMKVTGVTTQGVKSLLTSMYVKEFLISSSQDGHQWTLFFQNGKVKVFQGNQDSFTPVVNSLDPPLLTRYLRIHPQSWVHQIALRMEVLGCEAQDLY

B1: IXahelixVII (protein)
chain 1: YNSGKLEEFVQGNLERECMEEKCSFEEAREVFENTERTTEFWKQYVDGDQCESNPCLNGGSCKDDINSYECWCPFGFEGKNCELDVTCNIKNGRCEQFCKNSADNKVVCSCTEGYRLAENQKSCEPAVPFPCGRVSVSQTSKLTR
chain 2: VVGGEDAKPGQFPWQVVLNGKVDAFCGGSIVNEKWIVTAAHCVETGVKITVVAGEHNIEETEHTEQKRNVIRIIPHHNYNAAINKYNHDIALLELDEPLVLNSYVTPICIADKEYTNIFLKFGSGYVSGWGRVFHKGRSALVLQYLRVPRLMTQDCLQSTKFTIYNNMFCAGFHEGGRDSCQGDSGGPHVTEVEGTSFLTGIISWGEECAMKGKYGIYTKVSRYVNWIKEKTKLT
rate of factor Xa generation, Ca2+ and phospholipid, no VIIIa (20 nM IXa, 100 nM X) [1]: The rate of factor Xa generation in each case was 0.1 nM/min
X-activation rate, PL-minus system (14 nM VIIIa, 400 nM X) [2]: NM
X-activation rate, PL-plus system (70 pM VIIIa, 0.5 nM IXa, 15 nM X) [2]: NM
rate of factor X activation with phospholipid, factor VIIIa increased from 70 pM to 14 nM [2]: for IXahelixVII it was still not measurable

Reference: patent US20040110688
